According to PMC10918641 (Biomaterials, 2023):

System: C57BL/6J mice
Conditions: mouse, in vivo

B1: OVA-PEG: OVA conjugated to PEG via urethane linkage (conjugate, UniProt P01012 2-386, looked up)
Ovalbumin: GSIGAASMEFCFDVFKELKVHHANENIFYCPIAIMSALAMVYLGAKDSTRTQINKVVRFDKLPGFGDSIEAQCGTSVNVHSSLRDILNQITKPNDVYSFSLASRLYAEERYPILPEYLQCVKELYRGGLEPINFQTAADQARELINSWVESQTNGIIRNVLQPSSVDSQTAMVLVNAIVFKGLWEKAFKDEDTQAMPFRVTEQESKPVQMMYQIGLFRVASMASEKMKILELPFASGTMSMLVLLPDEVSGLEQLESIINFEKLTEWTSSNVMEERKIKVYLPRMKMEEKYNLTSVLMAMGITDVFSSSANLSGISSAESLKISQAVHAAHAEINEAGREVVGSAEAGVDAASVSEEFRADHPFLFCIKHIATNAVLFFGRCVSP
modifications: PEG 10K conjugate
  PEG-specific IgM titer relative to Ex-PEG: ~ 60 fold
  anti-OVA IgG titer: lower titers of anti-OVA IgG than unmodified OVA
  magnification of anti-OVA and anti-PEG responses by CFA/IFA emulsions: ~ 2 fold
